Results from patent US20240091361A1, “T CELL RECEPTORS TARGETING RAS MUTATIONS AND USES THEREOF” (MEMORIAL SLOAN-KETTERING CANCER CENTER, priority 2021, published 2024).
Values belong to the binder of their own block, whether it stands above or below them.

Assays:
[1] = target: T1, KRAS G12D (10-mer; the same sequence in NRAS G12D and HRAS G12D) peptide on HLA-A*11:01 (human); test: multimer staining
T1 peptide: VVVGADGVGK

[2] = target: T2, KRAS G12D (9-mer; the same sequence in NRAS G12D and HRAS G12D) peptide on HLA-A*11:01 (human); test: cytokine release
T2 peptide: VVGADGVGK

[3] = target: T3, ADA2C peptide on HLA-A*11:01 (human); test: cytokine release
T3 peptide: GAGGADGQGA

[4] = target: T4, TBL3 peptide on HLA-A*11:01 (human); test: cytokine release
T4 peptide: LSSGSDGLVK

[5] = target: T5, PER1 peptide on HLA-A*11:01 (human); test: cytokine release
T5 peptide: PLEGADGGGD

[6] = target: T6, MED13 peptide on HLA-A*11:01 (human); test: cytokine release
T6 peptide: NNDGADGMGI

[7] = target: T7, FOXL2 peptide on HLA-A*11:01 (human); test: cytokine release
T7 peptide: AGAGADGYGY

[8] = target: T8, EFMT2 peptide on HLA-A*11:01 (human); test: cytokine release
T8 peptide: MSSGADGGGG

[9] = target: T9, MYLK peptide on HLA-A*11:01 (human); test: cytokine release
T9 peptide: GGVGADGGGS

[10] = target: T10, CHADL peptide on HLA-A*11:01 (human); test: cytokine release
T10 peptide: RQCGADKVGK

[11] = target: T11, DYH8 peptide on HLA-A*11:01 (human); test: cytokine release
T11 peptide: KVAGADGKGI

[12] = target: T12, NDF2 peptide on HLA-A*11:01 (human); test: cytokine release
T12 peptide: TEQGADGAGR

[13] = target: T13, HMCN2 peptide on HLA-A*11:01 (human); test: cytokine release
T13 peptide: IKQGADGSGT

[14] = target: T14, GEM (also listed as SEQ ID NOs 82, 106, 130, 141) peptide on HLA-A*11:01 (human); test: cytokine release
T14 peptide: AVFGAGGVGK

[15] = target: T15, DAZP1 peptide on HLA-A*11:01 (human); test: cytokine release
T15 peptide: NNSGADEIGK

[16] = target: T16, MARF1 peptide on HLA-A*11:01 (human); test: cytokine release
T16 peptide: LKLGADGSGP

[17] = target: T17, ZN646 peptide on HLA-A*11:01 (human); test: cytokine release
T17 peptide: PEDGADGWGP

[18] = target: T18, FMNL1 peptide on HLA-A*11:01 (human); test: cytokine release
T18 peptide: QEAGADTPGK

[19] = target: T19, HIC1 peptide on HLA-A*11:01 (human); test: cytokine release
T19 peptide: GVPGPDGKGK

[20] = target: T20, GTR14; GTR3 (the same peptide, also listed as SEQ ID NO 88) peptide on HLA-A*11:01 (human); test: cytokine release
T20 peptide: QAHGADRSGK

[21] = target: T21, MICU1 peptide on HLA-A*11:01 (human); test: cytokine release
T21 peptide: YFFGADLKGK

[22] = target: T22, CC88B peptide on HLA-A*11:01 (human); test: cytokine release
T22 peptide: LRLGADGAGS

[23] = target: T23, KRAS wild type (10-mer) peptide on HLA-A*11:01 (human); test: cytokine release
T23 peptide: VVVGAGGVGK

[24] = target: T24, PBX3 peptide on HLA-A*11:01 (human); test: cytokine release
T24 peptide: GHEGADGDGR

[25] = target: T25, PRA19 peptide on HLA-A*11:01 (human); test: cytokine release
T25 peptide: KLFISDGCGY

[26] = target: T26, IBP7 peptide on HLA-A*11:01 (human); test: cytokine release
T26 peptide: PVCGSDGTTY

[27] = target: T27, SOCS7 peptide on HLA-A*11:01 (human); test: cytokine release
T27 peptide: GSGGGDGTGK

[28] = target: T28, MEIS1 peptide on HLA-A*11:01 (human); test: cytokine release
T28 peptide: HYGGMDGVGI

[29] = target: T29, AGRIN peptide on HLA-A*11:01 (human); test: cytokine release
T29 peptide: PVCGSDGVTY

[30] = target: T30, SO3A1 peptide on HLA-A*11:01 (human); test: cytokine release
T30 peptide: PVCGADGITY

[31] = target: T31, BY55 peptide on HLA-A*11:01 (human); test: cytokine release
T31 peptide: RDPGIDGVGE

[32] = target: T32, SMC5 peptide on HLA-A*11:01 (human); test: cytokine release
T32 peptide: MIVGANGTGK

[33] = target: T33, PUR2 peptide on HLA-A*11:01 (human); test: cytokine release
T33 peptide: LASGTDGVGT

[34] = target: T34, EFGM peptide on HLA-A*11:01 (human); test: cytokine release
T34 peptide: EVKGKDGVGA

[35] = target: T35, DNHD1 peptide on HLA-A*11:01 (human); test: cytokine release
T35 peptide: TVLGPNGVGK

[36] = target: T36, CO8A2 peptide on HLA-A*11:01 (human); test: cytokine release
T36 peptide: GPPGVDGVGV

[37] = target: T37, NLRP9 peptide on HLA-A*11:01 (human); test: cytokine release
T37 peptide: VLEGPDGIGK

[38] = target: T38, SUCB2 peptide on HLA-A*11:01 (human); test: cytokine release
T38 peptide: CAIIANGITK

[39] = target: T39, SO5A1 peptide on HLA-A*11:01 (human); test: cytokine release
T39 peptide: PVCGSDGITY

[40] = target: T40, ABCF1 peptide on HLA-A*11:01 (human); test: cytokine release
T40 peptide: CIVGPNGVGK

[41] = target: T41, CGAT2 peptide on HLA-A*11:01 (human); test: cytokine release
T41 peptide: RNVGANGIGY

[42] = target: T42, MEIS2 peptide on HLA-A*11:01 (human); test: cytokine release
T42 peptide: HYGGMDGVGV

[43] = target: T43, COBA1 peptide on HLA-A*11:01 (human); test: cytokine release
T43 peptide: GPAGQDGVGG

[44] = target: T44, USH1G peptide on HLA-A*11:01 (human); test: cytokine release
T44 peptide: EDGGLDGVGA

[45] = target: T45, CO6A3 peptide on HLA-A*11:01 (human); test: cytokine release
T45 peptide: GDDGRDGVGS

[46] = target: T46, COIA1 peptide on HLA-A*11:01 (human); test: cytokine release
T46 peptide: GDPGKDGVGQ

[47] = target: T47, CPNS1 peptide on HLA-A*11:01 (human); test: cytokine release
T47 peptide: AVMDSDTTGK

[48] = target: T48, CD166 peptide on HLA-A*11:01 (human); test: cytokine release
T48 peptide: NVFEAPTIVK

[49] = target: T49, CL056 peptide on HLA-A*11:01 (human); test: cytokine release
T49 peptide: SSQSAPTTGK

[50] = target: T50, CFA47 peptide on HLA-A*11:01 (human); test: cytokine release
T50 peptide: MVFDSPTIGK

[51] = target: T51, LEGL peptide on HLA-A*11:01 (human); test: cytokine release
T51 peptide: SVADSDAVVK

[52] = target: T52, FLNA peptide on HLA-A*11:01 (human); test: cytokine release
T52 peptide: VTIDGPSKVK

[53] = target: T53, RSLAA peptide on HLA-A*11:01 (human); test: cytokine release
T53 peptide: AVLGAPGVGK

[54] = target: T54, SALL1 peptide on HLA-A*11:01 (human); test: cytokine release
T54 peptide: SATSPPGSVK

[55] = target: T55, CK049 peptide on HLA-A*11:01 (human); test: cytokine release
T55 peptide: YSCPPPALVK

[56] = target: T56, CPNS2 peptide on HLA-A*11:01 (human); test: cytokine release
T56 peptide: SVMDSDTTGK

[57] = target: T57, KZF4 peptide on HLA-A*11:01 (human); test: cytokine release
T57 peptide: HSVSSPTVGK

[58] = target: T58, ABCF1 peptide on HLA-A*11:01 (human); test: cytokine release
T58 peptide: STSPSDKVVK

[59] = target: T59, K1671 peptide on HLA-A*11:01 (human); test: cytokine release
T59 peptide: TTKSGPALGK

[60] = target: T60, RL7A peptide on HLA-A*11:01 (human); test: cytokine release
T60 peptide: KVAPAPAVVK

[61] = target: T61, BMS1 peptide on HLA-A*11:01 (human); test: cytokine release
T61 peptide: VVMGPPKVGK

[62] = target: T62, IL17F peptide on HLA-A*11:01 (human); test: cytokine release
T62 peptide: KTLHGPAMVK

[63] = target: T63, SHAN3 peptide on HLA-A*11:01 (human); test: cytokine release
T63 peptide: TTVPSPASGK

[64] = target: T64, IGM peptide on HLA-A*11:01 (human); test: cytokine release
T64 peptide: LTESGPALVK

[65] = target: T65, SEZ6 peptide on HLA-A*11:01 (human); test: cytokine release
T65 peptide: LSLEAPTVGK

[66] = target: T66, KAD3 peptide on HLA-A*11:01 (human); test: cytokine release
T66 peptide: VIMGAPGSGK

[67] = target: T67, GRIN1 peptide on HLA-A*11:01 (human); test: cytokine release
T67 peptide: GTAGPPSAVK

binding result [1]: recognises | binding result [2]: recognises | binding result [3]: no recognition | binding result [4]: no recognition | binding result [5]: no recognition | binding result [6]: no recognition | binding result [7]: no recognition | binding result [8]: no recognition | binding result [9]: no recognition | binding result [10]: no recognition | binding result [11]: no recognition | binding result [12]: no recognition | binding result [13]: no recognition | binding result [14]: no recognition | binding result [15]: no recognition | binding result [16]: no recognition | binding result [17]: no recognition | binding result [18]: no recognition | binding result [19]: no recognition | binding result [20]: no recognition | binding result [21]: no recognition | binding result [22]: no recognition | binding result [23]: no recognition | binding result [24]: no recognition
B1: TCR 3 (TCR, V domains shown)
Valpha: AQTVTQSQPEMSVQEAETVTLSCTYDTSESDYYLFWYKQPPSRQMILVIRQEAYKQQNATENRFSVNFQKAAKSFSLKISDSQLGDAAMYFCAYRSDGGATNKLIFGTGTLLAVQP
Vbeta: EAQVTQNPRYLITVTGKKLTVTCSQNMNHEYMSWYRQDPGLGLRQIYYSMNVEVTDKGDVPEGYKVSRKEKRNFPLILESPSPNQTSLYFCASSLGAGGYNSPLHFGNGTRLTVT

binding result [1]: recognises | binding result [25]: no recognition | binding result [26]: no recognition | binding result [27]: no recognition | binding result [28]: no recognition | binding result [29]: no recognition | binding result [30]: no recognition | binding result [31]: no recognition | binding result [32]: no recognition | binding result [33]: no recognition | binding result [34]: no recognition | binding result [35]: no recognition | binding result [14]: no recognition | binding result [36]: no recognition | binding result [37]: no recognition | binding result [38]: no recognition | binding result [39]: no recognition | binding result [40]: no recognition | binding result [41]: no recognition | binding result [42]: no recognition | binding result [43]: no recognition | binding result [44]: no recognition | binding result [45]: no recognition | binding result [46]: no recognition | binding result [23]: no recognition
B2: TCR 4 (TCR, V domains shown)
Valpha: QKEVEQDPGPLSVPEGAIVSLNCTYSNSAFQYFMWYRQYSRKGPELLMYTYSSGNKEDGRFTAQVDKSSKYISLFIRDSQPSDSATYLCAMGALNSGAGSYQLTFGKGTKLSVIP
Vbeta: KAGVTQTPRYLIKTRGQQVTLSCSPISGHRSVSWYQQTPGQGLQFLFEYFSETQRNKGNFPGRFSGRQFSNSRSEMNVSTLELGDSALYLCASSLSSGTGTEAFFGQGTRLTVV

binding result [1]: recognises | binding result [2]: recognises | binding result [47]: no recognition | binding result [48]: no recognition | binding result [49]: no recognition | binding result [50]: no recognition | binding result [51]: no recognition | binding result [52]: no recognition | binding result [53]: no recognition | binding result [54]: no recognition | binding result [55]: no recognition | binding result [56]: no recognition | binding result [57]: no recognition | binding result [14]: no recognition | binding result [58]: no recognition | binding result [59]: no recognition | binding result [60]: no recognition | binding result [61]: no recognition | binding result [62]: no recognition | binding result [63]: no recognition | binding result [64]: no recognition | binding result [65]: no recognition | binding result [66]: no recognition | binding result [23]: no recognition | binding result [67]: no recognition
B3: TCR 2 (TCR, V domains shown)
Valpha: AQTVTQSQPEMSVQEAETVTLSCTYDTSENNYYLFWYKQPPSRQMILVIRQEAYKQQNATENRFSVNFQKAAKSFSLKISDSQLGDTAMYFCAFMYPSQGGSEKLVFGKGMKLTVNP
Vbeta: ETGVTQSPTHLIKTRGQQVTLRCSSQSGHNTVSWYQQALGQGPQFIFQYYREEENGRGNFPPRFSGLQFPNYSSELNVNALELDDSALYLCASSSPGFRSYGYTFGSGTRLTVV
